Experimental data taken from paper PMC4229036.

Target: Donor-labeled human factor Xa (fluorescein-EGR-chloromethylketone at the active site) (human)
Experiment: fluorescence polarisation

fluorescence anisotropy of active-site fluorescein (200 µM C6PS): 0.21
fluorescence anisotropy of active-site fluorescein (400 µM C6PS): 0.22
fluorescence anisotropy of active-site fluorescein (700 µM C6PS): 0.22
fluorescence anisotropy of active-site fluorescein (on membranes): 0.22
Substance: Recombinant human factor Va (FVa2) with a N2181Q mutation (natural protein)
